Consider 8 molecules from US20230115257A1 (published 2023).

The target in test [1] is SARS-CoV-2 B.1.1.529 spike trimer variant (SARS-CoV-2 B.1.1.529 (Omicron), UniProt P0DTC2 16-1213). The experiment in a line: ELISA. A general note: An ELISA detects its analyte on a solid surface through an enzyme-linked reagent.
The target of test [2] is SARS-CoV-2 BA.2 spike trimer variant (SARS-CoV-2 Omicron BA.2, UniProt P0DTC2 16-1213). The experiment in a line: ELISA.

B1: 9-J11-A (antibody, V domains shown)
VH: QVQLQQSGAELVKPGASVKMSCMASGYTFTTYPIEWMKQIHGKSLEWIGNFHPYNDDSKYNEKFKGKATLSVEKSSSTVYLELSRSTSDDSAVYYCARGSYGPYWYFDVWGTGTTVTVSS
VL: DIQMTQSPASLSASVGETVTITCRASGDIHNYLVWYQQKQGKSPQLLVYNAKALADGVPSRFSGSGSGTQYSLKINSLQPDDFGSYYCQHFWSIPYTFGGGTKLEIK
As to B1, the EC50 (commonly the concentration giving half of the maximal effect) in test [1] was determined as 0.39 nM; in test [2], 8.21 nM.

B2: 3-E13-A (antibody, V domains shown)
VH: EVQLQQSGPELVKPGASVKMSCKASGYTFTDYNIHWVKQSHGKSLEWIGYINPNNGGTDYNQKFQGKATLTVNKSSSTAYMELRSLTSEDFAVYYCARGGFYGNYGAYYGMDFWGQGTSVTVSS
VL: DIQMTQSPASLSASVGETVTITCRTSENIYSHLAWYQQTQGKSPQLLVYNAKTLAEGVPSRFSGSGSGTHFSLKINSLQPEDFGSYYCQHHYGIPPEFGGGTKLEIK
With B2, the EC50 in test [1] and in test [2] was 0.35 nM in each case.

B3: 2-J9-A (antibody, V domains shown)
VH: EVQLQQSGPELVKPGASVKMSCKASGYTFTDYNIHWVKQSHGKSLEWIGYINPNNGGTDYNQKFQGKATLTVNKSSSTAYMELRSLTSEDSAVYYCARGGFYGNYGAYYGMDFWGQGTSVTVSS
VL: DIQMTQSPASLSASVGETVTITCRTSENIYSHLAWYQQTQGKSPQLLVYNTKTLAEGVPSRFTGSGSGTQFSLKINSLQPEDFGSYYCQHHYGIPPEFGGGTKLEIK
As for B3, the EC50 worked out at 0.4 nM in test [1] and 0.31 nM in test [2].

B4: 9-L13-A (antibody, V domains shown)
VH: QVQLKESGPGLVAPSQSLSITCTVSGFSLTSYAISWVRQPPGKGLEWLGLIWTGGGTNYNSALKSRLSISKDNSKSQIFLKMNSLQTDDTARYYCARGPPLIYYGDLYYFDYWGQGTTLTVSS
VL: DIQMTQSPSSLSASLGGKVTITCKASQDINKYIAWYQHKPGKGPRLLIHYTSTLQPGIPSRFSGSGSGRDYSFSISNLEPEDIATYYCLQYDNLWTFGGGTKLEIK
On to B4, for which the EC50 in test [1] came out at 10.9 nM; in test [2], 12 nM.

B5: 4-C3-A (antibody, V domains shown)
VH: EVQLQQSGPELVKPGASVKISCKASGYSFTGYYMHWVKQSHGNILDWIGYIYPYNGVSSYNQKFKGKATLTVDKSSSTAYMELRSLTSEASAVYYCARAYGSSYDYYYGLDYWGQGTSVTVSS
VL: DIVLTQSPASLAVSLGQRATISCKASQSVDYDGAGYMNWYQQKPGQPPKLLISSASNLQSGIPARFSGSGSGTDFTLNIHPVEEEDAATYYCQQSNDDPYTFGGGTKLEIK
For the molecule B5, the figures for the EC50 in test [1] and in test [2] were 0.71 nM and 3.07 nM, respectively.

B6: 5-H22-A (antibody, V domains shown)
VH: QVQLQQSGAELVRPGASVTLSCKASGYTFTDYEMHWMKQTPVHGLEWIGAIDLETGGTVYNQKFKGKAILTADKSSNTAYMALRSLTSEDSAVYYCTREFPHYYGSRYGFPYWGQGTLVTVSA
VL: QIVLTQSPAIMSASPGEKVTITCSASSSVSYMHWLQQKPGTSPKLWIYSTSNLASGVPARFSGSGSGTSYSLTISRMEAEDAATYYCQQRSSYPYTFGGGTKLEIK
In test [1], B6 yielded an EC50 of 1.26 nM.

B7: 9-P9-A (antibody, V domains shown)
VH: DVKLVESGEGLVKPGGSLKLSCAASGFSFSNFGMSWVRQTPEKRLEWVAYISSGGDYIYYADTVKGRFTISRDNARNTLYLQMSSLKSEDTAIYYCTRGYFDYWGQGTTLTVSS
VL: DVLMTQTPLSLPVSLGDQASISCRSSQSIVHSNGNTYLEWYLQKPGQSPKLLIYTVSNRFSGVPDRFSGSGSGTDFTLKISRVEAEDLGVYYCFQGSHVPYTFGGGTKLEMR
In the case of B7, the EC50 in test [1] turned out to be 0.29 nM; in test [2] it was 0.3 nM.

B8: 10-I12-A (antibody, V domains shown)
VH: RVQLQQSGPELVRPGTSVKISCKASGYTFTDSYINWVTQRPGQGLDWIGWIFPGNDNTYYNEKFEGKATLTLDKSSSTAYMLLSSLTSEDSAVYFCARSGGLRLGFAYWGQGTLVTVSA
VL: NIVLTQSPASLAVSRGQRATISCRASESVDSYGHSFIHWYQQKPGQPPKILIYLASKLESGVPARFSGSGSRTDFTLTIDPVEADDAATYYCQQNNEDPWTFGGGTKLEIK
As for B8, in test [2], the half-maximal effective concentration (EC50) came to 81.1 nM.
